Test results reported in the DeepSol protein solubility set.

Assay: soluble on expression in E. coli; label from the status in PepcDB or PDB records

Row | Sequence | soluble on expression in E. coli
1 | MSLSRGAGEAAYRQRLVAVGDLHGDIDNAKKTLQMARIIDDDSKWVASTDILVQTGDIVDRGAYADDIYRLMQSLRGQAASQGGKVVSILGNHEVMNAIGDWRYVTKGDIARFGGTKSRQHALSAEGWLGQEWLANYSTTALVPISPYPSSPTFSFTHGSLRPSYANLTPYPAAINDLGHSLLTKALTPPMAPPYPPNPYSGLPKGTTHEEADLYAEGGPLWWRGLAEREEAQVCEWAKNLKQKIGARRIIGGHTPNFEKIVARCNASVIIIDTGISSAYGGVLSALEIVYTLTPVDRRGRDHSQDPLLLSTSSESIAGLKGRFVEREEVHAIYEHSRKWLALEEREVVLDEGHHHHHH | not soluble
2 | MTRSDRPYRGVEAAERLATRRRQSLSAGLDLLGSDQHDIAELTIRTICRRAGLSVRYFYESFTDKDEFVGRVFDWVVAELVATTQAAVTAVPAREQTRAGMANIVRTITADARVGRLLFSTQLANAVITRKRAESSALFAMLSGQHAVDTLHAPANDHVKAVAHFAVGGVGQTISAWLAGDVRLDPDQLVDQLAALLDELTDPNLSRPRVAATAAKSGANDPQPPEVAGQPPSSARPARRS | soluble
3 | MGSDKIHHHHHHMAQQTPLYEQHTLCGARMVDFHGWMMPLHYGSQIDEHHAVRTDAGMFDVSHMTIVDLRGSRTREFLRYLLANDVAKLTKSGKALYSGMLNASGGVIDDLIVYYFTEDFFRLVVNSATREKDLSWITQHAEPFGIEITVRDDLSMIAVQGPNAQAKAATLFNDAQRQAVEGMKPFFGVQAGDLFIATTGYTGEAGYEIALPNEKAADFWRALVEAGVKPCGLGARDTLRLEAGMNLYGQEMDETISPLAANMGWTIAWEPADRDFIGREALEVQREHGTEKLVGLVMTEKGVLRNELPVRFTDAQGNQHEGIITSGTFSPTLGYSIALARVPEGIGETAIVQIRNREMPVKVTKPVFVRNGKAVA | not soluble
4 | MEVVLHEGDAKDWVYKGEGAANLILSYTGSSPSMLGKVLRVKKILKDKGQPAPNCIVFSSHEEHLWGKIPGLLESVKNDCLPQAYATIVMSQHLGANHVDGGVRVRVSKNFFELAGKNVLDNRPAWRVNASAIDAGADSALLISDHTLFSGNPRGSSCIAVEIKAKCGFLPSSEYISKENSIKKQVTRYKMHQHLKFHLGEISKTSEYDPLDLFSGSKERIHMAIKSFFSTPQNNFRIFVDGSLVFGGMGGGADSVHPNETEKCLEDLSKVTGLQLSDFIELLSEAIFKSGVLGKLLATQKLDDHDIEGAIHLYYNIISQPCLVCKSITDTELLRKYSTLHSLPLDKSEKIVRDFLISATAKDCSLMISFRPRQSGTTDSEYDSVFLDSVNQSYDYKAYFIDLDVKPLDKMVLLPSRENV | soluble
5 | GPGSMSEKEGKVIPETNGMKRPRFDPVKLGLPEEFTLTDYTRLKGCSCKVPQPELLALLQSVSTTPGRRDVGMDCSIVKLQHKDETGKPLYMVSTTDFFFPSVEDPYLQGQIGAANVLSDLYSTGIDRCDTVLMLLAASTDMDKTEREVCTQEMMKGFVDHVRLAGSDVTGGQTVMNPWPLIGGIATSVVAESQMIRPTGLQPGDILVLTKPLGCQIAVNLKQWLRRPSPIFEEQIQGKMDSEEIEELYNAAADGMKRLNRMAAALMHSHGAHGATDVTGFGILGHAKNLGSAQKADVCLVLDSLPMYRGAVKASKLMGDKYRLFEGYAAETSGGLLVAFGTREEAEGYIRELYETDGEPAWVVGRVVRREGSAPYALLQKDYKIIEVGAKVNDKII | soluble
6 | MAHHHHHHMSTKYIIEHLDELEEWCIHEYIHICETVRDENVIFTKFCENFSELTNGKYKPACYEKSIDELKNELLSGNICLLDMKAKNKLTCNDKNKIDFLLFGGILGNVPSDDRTSILRNFNFPISRNLGPIQMTTNTAVLVCYIILNDNVELENIPYVDDPEIFLKNNKESITLPFRFVSKYYYTKCEQDKNVPVLPEKFKEYLIKLGDQQFDDMSSFLENEDN | not soluble
7 | MSLSNKSLTTGTAVDVLAGLPVKREASATGYSRTADFGAAWLDVDGNNCDTRNDILHRDLTDAVQRGGCKILSGTLNDKYSGESIHFVRGAKTSALVQVDHIVALKNAWVTGAQQLTQAQRVSFANDPLNLIAVDAHSNEQKSSGDAATWLPANKSSRCEYVARQISVKATYGLWVTPAEKSAMMDILADCSGQMAESSTFTEGHHHHHH | soluble
8 | GMNSPKNSLYEEKSGHYYNAVNPNLLKHIKKEWKEVLDIGCSSGALGAAIKENGTRVSGIEAFPEAAEQAKEKLDHVVLGDIETMDMPYEEEQFDCVIFGDVLEHLFDPWAVIEKVKPYIKQNGVILASIPNVSHISVLAPLLAGNWTYTEYGLLDKTHIRFFTFNEMLRMFLKAGYSISKVDRVYVDHKMYEPLIEELYGICKKYRLGSGFMAETVVFQYIIEAEKSQL | soluble
9 | MGSDKIHHHHHHMTQFDVLTIGNAIVDIISRCEDQFLEENGIVKGAMNLIDAERATRLYSLMGPAIEASGGSAGNTAAGIASFGGKAAYFGKVAEDELGEIFAHDIRAQGVHYQTMAKGQHPPTARCMIFVTEDGERSMNTYLGACVEFGPEDVEPEVVKQAKVTYFEGYLWDPPRAKQAIVDCARIAHEHGREMSMTLSDSFCVHRYRAEFLDLMRSGTVDIVFANRQEALALYETEDFDAALDQIAKDCKLAAVTMSEEGAMIIRGSERIHVPATTIAELVDTTGAGDLFASGFLYGYTQGRTLEECGKLGCLAAGLVIQQMGPRPLASLQEAAAEAGLI | not soluble
10 | MRILVLGVGNILLTDEAIGVRIVEALEQRYILPDYVEILDGGTAGMELLGDMANRDHLIIADAIVSKKNAPGTMMILRDEEVPALFTNKISPHQLGLADVLSALRFTGEFPKKLTLVGVIPESLEPHIGLTPTVEAMIEPALEQVLAALRESGVEAIPRSDS | soluble
11 | MAAAAAAKIAPSMLSSDFANLAAEADRMVRLGADWLHMDIMDGHFVPNLTIGAPVIQSLRKHTKAYLDCHLMVTNPSDYVEPLAKAGASGFTFHIEVSRDNWQELIQSIKAKGMRPGVSLRPGTPVEEVFPLVEAENPVELVLVMTVEPGFGGQKFMPEMMEKVRALRKKYPSLDIEVDGGLGPSTIDVAASAGANCIVAGSSIFGAAEPGEVISALRKSVEGSQNKS | soluble
12 | MLYPDTGRRSLVQYLSGSTGEPDGRTENRRMFMDTIGEAVLRSCQPYVRTVFNSVVVLNIMRTTHIVSMDVAHLANISASGQMFNYSLSFLGMKHVILMLWRCW | not soluble
13 | GPGSMHGIRRWRVRLVNRACQSLSGSLVFSACRHCATVPTEDDVRKAYKILGVHTSATLTDVKKRYGDLAKEHHPDVSNSSAVSSTNRMTDINNAYNTVKQFHQAGRRLFEATRAPNASGASDSSSSSYYSKQDSAYQPWYEDMDPLMYELMWEEMRRQNEEDSFARNMHAEAFYRPNDRWRPPRGNASARPRQSSGSSDGRQSHAGKKSPSSTTWPEEQVKAMVNMYQDGKSFEFIANALGKESAAAVLEEFNRWSSDNQPQRRKGAKPHHARRHRYHGGHGPFYHTESPDEVPFELYEMMEEEPYYDGSSEESGDPFGYYSGDGEAYDVPYTHATPFYGVHQMNGGPAPYGHFEGGVGREYNSSRKMSHRPMRNHRGGPPNKNRRYGGTSSNHKGSGGGFQSGNGKSHGSGGGKT | not soluble
14 | MPVYFTKRAFLPDGWAADVQIAVDELGDIQRISTGSSSSGCQVLSGPVLPGMPNLHSHAFQRMMSGLAEVAGDPQDSFWTWRDLMYRLVQQLTPEQVGVIARQLYIEMLKGGYTQVAEFHYLHHSPDGSPYNDIGEMTAQLSQAAQDAGIGMTLLPVLYSYAGFGAQPAQQGQSRFIQDTESYLRQQQVIRRQLANQPLQNQGLCFHSLRAVELSQMQQILHVSDKQLPVHIHIAEQQKEVNDCLAWCGQRPVAWLYGHLPVDSRWCLVHATHLDTSELVMLANSQAVAGLCPTTEANLGDGIFPGVDYIHHQGRWGIGSDSHVSLDVVEELRWLEYGQRLRDQRRNRLTCERQPAVADLLYSQALAGGRQACGRQISQLAVGYRADWLVLDGDDPYIAGTRSASLLNRWLFAGGKSQIRDVYVAGKAVIVDRYHPLQQQTAQAFLAVLKACQQEV | not soluble
15 | FNDEGEMHLPGQYDMLKARLAKNPGAELLIFIHGWHHNAAPTDDNFVAFQRFHRQMAKTNPGLIGLYIGWRGDQYDPLWLDGSDDPESRVEALDFPTILTSKQVARRVGEHGVRKLLSSLDELHRQGTLGRYILVGHSLGGVVALHA | not soluble
16 | DRKMNRKMISIVENDGNGFREVFRYDYERKNFVPDNLKEITSIQLERSRELLGWSRDKLYREIENRLLLIRGLAEKGVYDYDTLARELVKYYTNGD | not soluble
